Experimental data taken from patent publication US20110033875A1 (UNIVERSITY OF GEORGIA RESEARCH FOUNDATION, published 2011).

What was measured:
[1] = target: glycoproteins from mouse endometrioid ovarian tumors nonadherent to Con A; assay: lectin blot of Con A-unbound mouse tissue glycoproteins with biotinylated E-PHA, densitometry (FIG. 11A lanes 3 and 4)
[2] = target: proteins of human ductal invasive breast carcinoma tissue (cases 10406, 10119, 11827, 2417, 2207); assay: L-PHA binding to breast tumor tissue proteins, case 10406; scale not defined
[3] = target: proteins of human ductal invasive breast carcinoma tissue (cases 10406, 10119, 11827, 2417, 2207); assay: L-PHA binding to breast tumor tissue proteins, case 2417; scale not defined
[4] = target: proteins of human ductal invasive breast carcinoma tissue (cases 10406, 10119, 11827, 2417, 2207); assay: L-PHA binding to breast tumor tissue proteins, case 11827; scale not defined
[5] = target: proteins of human ductal invasive breast carcinoma tissue (cases 10406, 10119, 11827, 2417, 2207); assay: L-PHA binding to breast tumor tissue proteins, case 10119; scale not defined
[6] = target: proteins of human ductal invasive breast carcinoma tissue (cases 10406, 10119, 11827, 2417, 2207); assay: L-PHA binding to breast tumor tissue proteins, case 2207; scale not defined
[7] = target: glycoproteins from human endometrioid ovarian tumors (cases 711, 741, 471) nonadherent to Con A; assay: lectin blot of Con A-unbound glycoproteins, human case 471, biotinylated AAL, densitometry (FIG. 11B lane 4)
[8] = target: T1, Thrombospondin 1 from serum and tissue of ovarian cancer patients (human, UniProt P07996 19-1170, limits assumed, core fucosylated N-linked glycans (inferred from AAL reactivity)); assay: biotinylated AAL precipitation from serum, Western blot with anti-THBS1 (FIG. 19B panel 2)
T1 construct: also called THBS1; AAL-reactive THBS1
T1 sequence (P07996 19-1170 limits assumed): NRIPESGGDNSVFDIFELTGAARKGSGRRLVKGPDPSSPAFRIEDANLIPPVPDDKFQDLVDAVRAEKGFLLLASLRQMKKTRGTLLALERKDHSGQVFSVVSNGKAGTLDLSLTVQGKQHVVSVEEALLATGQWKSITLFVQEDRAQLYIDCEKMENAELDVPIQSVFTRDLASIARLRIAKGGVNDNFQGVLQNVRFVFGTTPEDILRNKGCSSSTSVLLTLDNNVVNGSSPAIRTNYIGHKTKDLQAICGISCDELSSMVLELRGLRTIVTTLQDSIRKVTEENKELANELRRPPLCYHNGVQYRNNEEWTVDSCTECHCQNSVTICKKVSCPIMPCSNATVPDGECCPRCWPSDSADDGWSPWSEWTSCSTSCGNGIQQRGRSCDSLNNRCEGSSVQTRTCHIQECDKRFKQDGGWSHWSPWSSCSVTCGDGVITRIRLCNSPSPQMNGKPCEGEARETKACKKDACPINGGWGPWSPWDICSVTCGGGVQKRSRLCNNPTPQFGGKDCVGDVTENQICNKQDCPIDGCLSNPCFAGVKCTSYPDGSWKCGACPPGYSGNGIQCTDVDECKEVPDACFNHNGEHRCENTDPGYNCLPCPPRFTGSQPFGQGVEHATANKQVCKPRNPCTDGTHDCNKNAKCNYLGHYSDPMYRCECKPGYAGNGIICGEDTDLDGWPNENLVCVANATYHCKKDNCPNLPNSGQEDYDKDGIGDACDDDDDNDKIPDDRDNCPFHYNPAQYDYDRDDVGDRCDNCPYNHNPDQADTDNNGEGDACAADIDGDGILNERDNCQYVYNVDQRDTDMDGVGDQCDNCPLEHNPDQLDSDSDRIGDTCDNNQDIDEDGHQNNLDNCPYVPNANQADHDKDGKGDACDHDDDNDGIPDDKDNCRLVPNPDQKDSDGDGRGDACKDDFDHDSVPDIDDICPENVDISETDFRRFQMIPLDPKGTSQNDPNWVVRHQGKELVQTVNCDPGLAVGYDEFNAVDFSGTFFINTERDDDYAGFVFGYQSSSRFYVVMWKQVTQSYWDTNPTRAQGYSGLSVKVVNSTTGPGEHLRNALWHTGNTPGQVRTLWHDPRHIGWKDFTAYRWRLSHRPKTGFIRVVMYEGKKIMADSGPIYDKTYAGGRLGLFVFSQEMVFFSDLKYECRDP

[9] = target: T2, Glucose-regulated protein 78 immunoprecipitated from human ovarian cancer tissue (human, UniProt P11021 19-654); assay: GRP78 immunoprecipitated from ovarian cancer tissue, SDS-PAGE, lectin blot
T2 construct: also called GRP78
T2 sequence (P11021 19-654 limits assumed): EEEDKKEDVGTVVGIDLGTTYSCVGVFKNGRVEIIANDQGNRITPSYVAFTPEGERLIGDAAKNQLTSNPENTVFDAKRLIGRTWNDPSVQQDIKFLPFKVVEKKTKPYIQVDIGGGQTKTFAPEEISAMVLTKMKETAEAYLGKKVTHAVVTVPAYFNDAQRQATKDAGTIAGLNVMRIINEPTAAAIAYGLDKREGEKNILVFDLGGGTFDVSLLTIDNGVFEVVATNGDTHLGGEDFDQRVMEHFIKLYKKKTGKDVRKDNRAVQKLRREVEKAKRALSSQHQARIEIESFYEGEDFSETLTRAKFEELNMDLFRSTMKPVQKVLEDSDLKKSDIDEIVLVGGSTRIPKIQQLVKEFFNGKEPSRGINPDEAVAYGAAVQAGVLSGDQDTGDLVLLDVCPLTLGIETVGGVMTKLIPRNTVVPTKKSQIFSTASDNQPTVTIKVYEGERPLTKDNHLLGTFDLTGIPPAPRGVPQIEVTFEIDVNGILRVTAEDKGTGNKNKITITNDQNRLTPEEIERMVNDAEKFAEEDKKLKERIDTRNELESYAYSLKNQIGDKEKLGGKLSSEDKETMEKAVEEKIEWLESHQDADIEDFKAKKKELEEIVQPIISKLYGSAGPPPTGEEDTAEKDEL

Molecule: Phaseolus vulgaris erythroagglutinin (erythroagglutinating phytohemagglutinin), biotinylated (from UniProt P05088 22-275)
- level of E-PHA binding for tumor relative to normal (x relative to normal) [1]: 0.2

Molecule: Phaseolus vulgaris leukoagglutinin (leukoagglutinating phytohemagglutinin), biotinylated (from UniProt P05087 21-272)
- L-PHA Level [2]: 1
- L-PHA Level [3]: 10
- L-PHA Level [4]: 4
- L-PHA Level [5]: 4
- L-PHA Level [6]: 9

B1: Aleuria aurantia lectin, biotinylated (other, UniProt P18891 2-313, looked up)
chain: PTEFLYTSKIAAISWAATGGRQQRVYFQDLNGKIREAQRGGDNPWTGGSSQNVIGEAKLFSPLAAVTWKSAQGIQIRVYCVNKDNILSEFVYDGSKWITGQLGSVGVKVGSNSKLAALQWGGSESAPPNIRVYYQKSNGSGSSIHEYVWSGKWTAGASFGSTVPGTGIGATAIGPGRLRIYYQATDNKIREHCWDSNSWYVGGFSASASAGVSIAAISWGSTPNIRVYWQKGREELYEAAYGGSWNTPGQIKDASRPTPSLPDTFIAANSSGNIDISVFFQASGVSLQQWQWISGKGWSIGAVVPTGTPAGW
modifications: biotinylated
notes: Commercial fungal lectin; also called AAL
- fold increase in the level of AAL binding relative to normal [7]: 7 fold
- binding result [8]: binds
- binding result [9]: no binding

B2: Phaseolus vulgaris erythroagglutinin (erythroagglutinating phytohemagglutinin), biotinylated (other, Phaseolus vulgaris (red kidney bean), UniProt P05088 22-275, looked up)
chain: ASQTSFSFQRFNETNLILQRDATVSSKGQLRLTNVNDNGEPTLSSLGRAFYSAPIQIWDNTTGAVAASPTSFTFNIDVPNNSGPADGLAFVLLPVGSQPKDKGGLLGLFNNYKYDSNAHTVAVEFDTLYNVHWDPKPRHIGIDVNSIKSIKTTTWDFVKGENAEVLITYDSSTKLLVASLVYPSLKTSFIVSDTVDLKSVLPEWVIVGFTATTGITKGNVETNDILSWSFASKLSDGTTSEALNLANFALNQIL
modifications: biotinylated
notes: also called E-PHA; EPHA
- binding result [9]: no binding
